The record followed here is patent publication US20210340257A1.

For test [1], the target named is human B7-H3 (CD276), on cells (human) (UniProt Q5ZPR3). Put plainly: cell-based or functional assay.
Test [2] concerns the target mouse B7-H3, on cells (mouse) (UniProt Q8VE98). As to the kind of experiment: cell-based or functional assay.
Test [3] deals with human B7-H3 (CD276), on cells (human) (UniProt Q5ZPR3). As to the kind of experiment: flow chamber attachment of microbubbles to MS1hB7-H3 cells under shear.
The target is the same in test [4]. As to the kind of experiment: parallel-plate flow chamber attachment of microbubbles to MS1 B7-H3+ cells under shear.
Test [5] deals with recombinant soluble human B7-H3 ectodomain protein (human) (UniProt Q5ZPR3). Put plainly: flow cytometry; antibody on streptavidin magnetic beads, 3 µM soluble B7-H3, detected with APC anti-B7-H3 antibody. For orientation: A flow cytometer gives signals particle by particle.
Test [6] has the same target. As to the kind of experiment: flow cytometry; unconjugated streptavidin magnetic beads, 3 µM soluble B7-H3, detected with APC anti-B7-H3 antibody.

human B7-H3 (CD276), on cells (human), sequence (Q5ZPR3 29-534): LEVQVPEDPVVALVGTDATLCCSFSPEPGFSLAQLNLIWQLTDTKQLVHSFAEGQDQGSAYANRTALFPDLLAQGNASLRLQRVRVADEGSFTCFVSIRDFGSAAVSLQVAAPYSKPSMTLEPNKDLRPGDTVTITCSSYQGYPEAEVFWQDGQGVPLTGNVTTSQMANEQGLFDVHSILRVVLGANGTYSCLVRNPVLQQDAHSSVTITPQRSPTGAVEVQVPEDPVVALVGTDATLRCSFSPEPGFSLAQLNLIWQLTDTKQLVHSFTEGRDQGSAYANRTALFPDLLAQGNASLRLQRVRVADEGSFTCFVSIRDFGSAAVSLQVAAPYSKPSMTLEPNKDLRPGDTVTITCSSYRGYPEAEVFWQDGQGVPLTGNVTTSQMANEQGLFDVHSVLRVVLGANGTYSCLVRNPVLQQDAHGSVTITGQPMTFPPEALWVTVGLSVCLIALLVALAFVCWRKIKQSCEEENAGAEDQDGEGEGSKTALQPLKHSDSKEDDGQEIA
mouse B7-H3, on cells (mouse), sequence (Q8VE98 29-316): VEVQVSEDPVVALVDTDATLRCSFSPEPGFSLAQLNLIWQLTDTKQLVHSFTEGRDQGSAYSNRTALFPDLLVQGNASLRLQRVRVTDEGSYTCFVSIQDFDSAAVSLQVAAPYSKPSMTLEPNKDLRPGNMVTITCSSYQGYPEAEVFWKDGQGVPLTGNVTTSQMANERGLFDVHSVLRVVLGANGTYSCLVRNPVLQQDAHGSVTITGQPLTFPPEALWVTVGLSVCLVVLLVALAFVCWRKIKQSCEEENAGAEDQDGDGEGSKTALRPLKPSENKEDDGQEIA

In test [1], “biotinylated anti-B7-H3 antibody (eBiosciences, clone M3.2D7)” returned a US molecular imaging signal, orthotopic MDA-MB-231 tumors co-implanted with MS1hB7-H3 cells of 8.2 a.u. For the same substance, in test [2], the US molecular imaging signal, mammary tumors of MMTV-PyMT transgenic mice was found to be 7.2 a.u; the in vivo ultrasound molecular imaging signal of tumors (transgenic mouse model) stood at 4.82 a.u; the targeted imaging signal in transgenic mice with breast tumors stood at 6.22 a.u. The microbubbles attached per cell in test [3] worked out at 9.8 MB/cell. In test [4], this substance came in with a microbubbles attached per cell of 9.79 MB/cell. In addition, the % binding in test [5] was determined as 81%.
In the case of “MBNon-targeted (unconjugated streptavidin-coated microbubbles) (from UniProt P22629 37-163)”, the microbubbles attached per cell in test [3] and in test [4] was 0.5 MB/cell each time.
For the substance “unconjugated streptavidin magnetic beads (from UniProt P22629 37-163)”, the % binding in test [6] stood at 1%.
